Assay results from IntAct's records for PubMed 17341134.

Target: cdk5_rat Cdk5 (UniProt Q03114)

| Substance | effect of a mutation on the interaction |
| --- | --- |
| BDNF/NT-3 growth factors receptor (Rattus norvegicus (Rat)), Q63604 S478A | decreasing interaction |
| BDNF/NT-3 growth factors receptor (Rattus norvegicus (Rat)), Q63604 T489A | decreasing interaction |
